From US20180118848A1

Molecular target: human MUC16 (mucin 16) (human)
Assay: MSD ECL cell binding, RLU ratio OVCAR-3 vs SK-OV-3, […] Ab; NS = ratio <2.5-fold

Ratio anti-MUC16 Binding OVCAR-3/SK-OV-3 | Substance
< 2.5 | hIgG1 Isotype Control Antibody
< 2.5 | mIgG1 Isotype Control Antibody
< 2.5 | mIgG2a Isotype Control Antibody
